Test system: HT-29
Assay: Tumor cell proliferation, HT-29
Type: cell-based
Settings: HT-29, 72 hours
Method: Cell Proliferation Assay. The effect of rK5 and rK5 peptides on endothelial cells were assessed using a proliferation assay with 1% BSA and 3 ng/ml bFGF in serum-free media. Relative cell numbers in each well of a 96 well microplate after incubation for 72 hours in the absence or presence of inhibitors were determined by using the AQueous cell proliferation assay (Promega, San Luis Obispo, Calif.). For all other cell lines tested for proliferation, minimal growth media was used (Cao, Y., Ji, R., Davidson, D., Schaller, J., Marti, D., Sohndel, S., McCance, S., O'Reilly, M., Llinas, M., and Folkman, J. Kringle domains of human angiostatin. Characterization of the anti-proliferative activity on endothelial cells. (1996) J. Biol. Chem. 271, 29461-29467). Results are presented as the percent inhibition of control cell (bFGF-induced) proliferation.

B1: rK5: recombinant kringle 5 fragment of human plasminogen (residues 450-543), expressed in E. coli or yeast (protein)
chain: LLPDVETPSEEDCMFGNGKGYRGKRATTVTGTPCQDWAAQEPHRHSIFTPETNPRAGLEKNYCRNPDGDVGGPWCYTTNPRKLYDYCDVPQCAA
- IC50 values for cell proliferation: >100 µg/mL

— patent publication US20050053993A1, “Uses of an endothelial cell receptor” (priority 2002, published 2005)
